The results in this text go back to paper PMC3368889 (Immunity, 2012).

This series concerns the molecule itself. Put plainly: SEC.

B1: C-terminal fragment of human NLRX1 (residues 629-975) (domain or fragment, UniProt Q86UT6 629-975, looked up)
chain: GLLSAHNRAVLAQLGCPIKNLDALENAQAIKKKLGKLGRQVLPPSELLDHLFFHYEFQNQRFSAEVLSSLRQLNLAGVRMTPVKCTVVAAVLGSGRHALDEVNLASCQLDPAGLRTLLPVFLRARKLGLQLNSLGPEACKDLRDLLLHDQCQITTLRLSNNPLTAAGVAVLMEGLAGNTSVTHLSLLHTGLGDEGLELLAAQLDRNRQLQELNVAYNGAGDTAALALARAAREHPSLELLHLYFNELSSEGRQVLRDLGGAAEGGARVVVSLTEGTAVSEYWSVILSEVQRNLNSWDRARVQRHLELLLRDLEDSRGATLNPWRKAQLLRVEGEVRALLEQLGSSGS
B1: the stoichiometry N (as a rule, the number of molecules, sites or subunits per partner or assembly) amounted to 2.
